Key:
endogenous human ADM-Gly = assay: Conversion of endogenous ADM-Gly to bio-ADM in human Li-Heparin plasma with exogenous recombinant PAM; type: biochemical; details: 37° C.
From the text: ADM-Gly was quantified as based on Weber et al. (Weber et al. 2017. JALM 2(2): 222-233) for bioactive ADM with the following modifications: the tracer-antibody used for ADM-Gly detection, labelled with MACN-acridinium-NHS, was directed to the C-terminal glycine of ADM-Gly. The assay was calibrated with synthetic ADM-Gly. The limit of detection (LOD) was 10 pg/mL of ADM-Gly. Cross-reactivity of antibody directed to the C-terminal glycine of ADM with bio-ADM was in the range between 6 and 50% in a concentration dependent manner. All determined ADM-Gly concentrations were corrected for cross-reactivity as follows: For each ADM-Gly quantification additional quantification of bio-ADM in corresponding samples was performed using the Sphingotest® bio-ADM immunoassay. […] The determined signal (RLU) was used to calculate the false-positive ADM-Gly concentration (pg/mL) using the ADM-Gly calibration curve. This concentration was subtracted from the initially determined ADM-Gly concentration.
In a further experiment we investigated the formation of bio-ADM from endogenous ADM-Gly by native human plasma PAM and the effect of addition of exogenous recombinant human PAM. […] The concentration of bio-ADM in the reaction sample was quantified using the Sphingotest® bio-ADM immunoassay as described recently (Weber et al. 2017. JALM 2(2): 222-233). […]

circulating ADM-Gly = assay: bio-ADM increase after administration of recombinant human PAM in rats (example 9); type: in vivo, Wistar-rat; details: intravenously administered recombinant human PAM
Method: Two animals (Wistar-rat, male, 2-3 month of age) received 17 μg of recombinant human PAM (see example 1) as a single dose in a total volume of 500 μl (in phosphate-buffered saline). One control-animal received 500 μl of PBS. Blood sampling (Li-Heparin Plasma) was carried out 30 min prior to application and 30 min, 2 h, 4 h, 8 h, 24 h and 48 h, respectively, after application.

PAM activity = assay: Circulating PAM activity in rats after intravenous injection of PAM, ascorbate or both, measured without exogenous ascorbate; type: in vivo, Wistar rats
bio-ADM = assay: Circulating bio-ADM concentration in rats after intravenous injection of PAM, ascorbate or both; type: in vivo, Wistar rats
[1] = Half-life of recombinant PAM in rats (example 10, one-phase decay model); type: in vivo; details: example 10, single i.v. dose, FIG. 22
Method: FIG. 22: Half-life of recombinant PAM in rats, determined from one-phase decay model.
Endotoxin-free, recombinant PAM (SinoBiological) was buffer exchanged into sterile phosphate buffer saline (PBS, Dulbecco) and adjusted to 50 μg/mL. Sterile ascorbate solution for injection (200 mg/mL, vitamin C 1000, WÖRWAG Pharma) was purchased in a local pharmacy and adjusted under sterile conditions with PBS to 40 mg/mL. For combined injections of PAM and ascorbate, the compounds were prepared separately in equal volumes (100 μg/mL or 80 mg/mL for PAM and ascorbate, respectively). Both compounds were combined directly prior to injection to result in concentrations of 50 μg/mL for PAM and 40 mg/mL for ascorbate. Sterile PBS was used as placebo. All samples were stored at −80° C. until use. Animals, male Wistar rats, 2-3 month of age, were assigned into 4 groups (placebo, ascorbate, PAM, PAM+ascorbate) with 3 animals per group. Each animal in the individual group received 500 μl of the respective compound intravenously as a single dose injection. Blood sampling was performed as Li-Heparin 30 min prior to and 15, 30, 45, 60, 120, 180, 240 and 300 min post injection. PAM activities were determined as described in example 3.

B1: recombinant human PAM: Recombinant human peptidylglycine alpha-amidating monooxygenase, aa 21-834, SEQ ID No. 10 (Example 1); Example 10 used endotoxin-free recombinant PAM from SinoBiological (protein, listed as Homo sapiens)
chain: SPLSVFKRFKETTRPFSNECLGTTRPVVPIDSSDFALDIRMPGVTPKQSDTYFCMSMRIPVDEEAFVIDFKPRASMDTVHHMLLFGCNMPSSTGSYWFCDEGTCTDKANILYAWARNAPPTRLPKGVGFRVGGETGSKYFVLQVHYGDISAFRDNNKDCSGVSLHLTRLPQPLIAGMYLMMSVDTVIPAGEKVVNSDISCHYKNYPMHVFAYRVHTHHLGKVVSGYRVRNGQWTLIGRQSPQLPQAFYPVGHPVDVSFGDLLAARCVFTGEGRTEATHIGGTSSDEMCNLYIMYYMEAKHAVSFMTCTQNVAPDMFRTIPPEANIPIPVKSDMVMMHEHHKETEYKDKIPLLQQPKREEEEVLDQGDFYSLLSKLLGEREDVVHVHKYNPTEKAESESDLVAEIANVVQKKDLGRSDAREGAEHERGNAILVRDRIHKFHRLVSTLRPPESRVFSLQQPPPGEGTWEPEHTGDFHMEEALDWPGVYLLPGQVSGVALDPKNNLVIFHRGDHVWDGNSFDSKFVYQQIGLGPIEEDTILVIDPNNAAVLQSSGKNLFYLPHGLSIDKDGNYWVTDVALHQVFKLDPNNKEGPVLILGRSMQPGSDQNHFCQPTDVAVDPGTGAIYVSDGYCNSRIVQFSPSGKFITQWGEESSGSSPLPGQFTVPHSLALVPLLGQLCVADRENGRIQCFKTDTKEFVREIKHSSFGRNVFAISYIPGLLFAVNGKPHFGDQEPVQGFVMNFSNGEIIDIFKPVRKHFDMPHDIVASEDGTVYIGDAHTNTVWKFTLTEKLEHRSVKKAGIEVQEIKEAEAVVGS
With B1 the “increase of the bio-ADM synthesis rate from endogenous human ADM-Gly (averaged factor)” value (endogenous human ADM-Gly; 500 ng/ml exogenous recombinant PAM (approximate doubling of PAM concentration) in human Li-Heparin plasma pool with high ADM-Gly, at each time-point, vs native PAM alone) was 1.8, the “ADM-Gly consumption / shift of ADM-Gly/bio-ADM ratio” value (endogenous human ADM-Gly; 500 ng/ml exogenous recombinant PAM in human Li-Heparin plasma) was “faster shift of the ADM-Gly/bio-ADM ratio towards bio-ADM” and the “time of maximum bio-ADM increase” value (circulating ADM-Gly) was 4 h. The “maximal elevation of PAM activity compared to placebo group (factor)” value (PAM activity; 15 minutes past injection) was 6, the “PAM activity compared to placebo group” value (PAM activity; 120 min past injection) was “not significantly different” and the “time of maximal elevation of PAM activity past injection” value (PAM activity; single i.v. injection) was 15 min. The “elevation of circulating PAM activity” value (PAM activity; single i.v. injection of 500 μl (PAM 50 μg/mL, ascorbate 40 mg/mL), vs placebo) was “highly significant elevation”, the “time PAM activity remained elevated after injection” value (PAM activity; single i.v. injection, significantly elevated for PAM and the combination) was 60 min and the “bio-ADM concentration elevated by the factor (normalized to placebo)” value (bio-ADM; after 15 min) was 1.8. The “bio-ADM concentration elevated by the factor (normalized to placebo)” value (bio-ADM; after 30 min) was 2.4, the “bio-ADM concentration elevated by the factor (normalized to placebo)” value (bio-ADM; after 45 min) was 2 and the “bio-ADM concentration elevated by the factor (normalized to placebo)” value (bio-ADM; after 60 min) was “not significantly different”. For the same molecule, the “bio-ADM concentration compared to the Placebo group” value (bio-ADM; after 120 minutes) was “not significantly different”, the “time of maximum bio-ADM increase” value (bio-ADM; intravenously administered, example 10) was 30 min and the “half-life of recombinant human PAM in rats” value [1] was 52.7 min.

Reference: patent US20230149516A1, “USE OF PEPTIDYLGLYCINE ALPHA-AMIDATING MONOOXYGENASE (PAM) FOR THERAPEUTIC PURPOSE” (PAM THERAGNOSITICS GMBH, priority 2020, published 2023)
